B1: HEEH_KT_rd6_0790 (parent)
chain: SEEEEEEWRRAKERGEEIIILGILWKPNDEEAERRIKEALRRV

Variants of: B1
Assay: folding stability dG (cDNA display proteolysis); higher = more stable
Conditions: PBS, room temperature

Folding stability dG [kcal/mol]: each site, then its substitutions
I23: Y 0.775, E 0.981, F 1.26, L 1.46, G 0.931, K 1.08, R 0.853, V 1.55, P 0.9, T 1.16, D 0.764, H 1.2, S 0.659, W 0.765, N 0.85, A 0.977, Q 0.969, M 1.08
A32: P 0.466, H 0.931, Y 1.07, N 1.02, K 0.96, F 0.917, I 1.39, Q 1.07, T 1.55, R 1.12, W 1.02, M 1.26, E 1.25, S 1.96, L 1.41, V 1.37, G 1.2, D 0.955
K37: T 2.4, E 2.49, A 1.92, D 1.93, W 2.3, S 1.85, N 2.35, V 2.44, M 2.23, I 2.56, Y 2.08, F 2.11, Q 2.04, H 2, L 2.75, R 2.37, P 0.399, G 1.43
R34: M 2.12, D 1.64, P 0.726, K 2.06, F 1.9, V 1.87, G 1.63, Y 1.87, N 2, Q 2.14, L 2.06, I 1.77, T 1.9, W 1.92, A 2.22, H 1.73, C 2.5, S 2.02, E 2.12
I20: W 1.17, E 0.692, K 0.813, G 0.748, F 2.27, H 0.981, P 0.587, T 0.843, N 0.804, C 2.07, V 1.84, R 1.08, A 0.825, Y 1.5, D 0.628, M 1.28, S 0.816, Q 0.945, L 1.35
W25: H 0.716, E 0.532, M 0.967, L 0.939, S 0.662, Y 1.25, Q 0.568, I 1.01, R 0.67, A 0.981, P 0.549, K 0.664, V 0.885, C 1.26, T 0.615, N 0.423, G 0.809, D 0.518, F 1.4
E31: T 1.79, K 1.32, F 1.49, P 0.967, I 1.8, L 1.69, Q 1.72, A 1.79, V 1.9, Y 1.56, S 1.69, D 2.14, W 1.5, H 1.64, R 1.38, G 1.61, M 1.54, N 1.69
E30: T 1.9, F 2.05, S 1.83, K 1.93, Q 1.94, H 2.06, N 1.83, G 1.78, R 1.81, V 2.04, L 2.28, Y 2.13, W 1.94, D 2.25, P 2.04, A 2.03, I 2.17, M 2.24
L24: I 1.69, K 2.14, P 1.39, R 1.95, G 0.898, A 1.53, Y 1.72, Q 1.66, F 1.64, N 1.34, E 1.29, V 1.79, H 1.75, D 0.729, M 1.79, T 1.75, S 1.67, W 1.26
K26: F 1.51, Q 1.64, N 1.6, Y 1.51, S 1.99, L 1.65, V 2.06, D 1.26, I 2.02, W 1.53, M 1.7, H 1.46, G 1.52, P 1.26, R 2.4, E 1.26, T 2.12, A 1.87
I19: T 2.14, W 2.53, Y 2.2, V 2.17
D29: Y 1.24, A 1.25, V 1.25, W 1.55, N 1.39, I 0.872, P 1.09, Q 1.34, F 1.28, L 1.01, K 0.951, R 1.19, M 1.05, G 1, T 0.862, S 1.42, H 1.28, E 1.06
E38: D 2.06, A 1.94
R35: L 2.19, M 2.2, T 1.5, A 2.21, Y 1.18, Q 2.14, E 1.68, S 1.71, I 1.66, G 1.32, N 1.62, K 2.09, D 1.49, P 0.078, V 1.48, W 1.56, H 1.61, F 1.38
E33: P 0.529, F 1.66, K 1.09, N 1.61, L 1.7, T 1.98, D 2.01, W 1.99, R 1.29, Q 1.31, A 1.72, G 1.49, H 1.3, V 1.52, M 1.7, S 1.68, Y 1.71, I 1.49
G22: T 1.4, H 1.1, K 0.815, N 1.18, R 0.712, Q 1.15, D 1.29, Y 1.98, S 1.19, F 2.59, P 0.681, L 2.12, W 1.93, V 2.1, M 2.3, A 1.37, E 1.12, I 2.28
N28: F 2.1, P 1.34, I 0.872, Q 1.82, A 1.67, M 1.77, T 1.38, D 2.19, L 1.61, H 1.97, G 2.81, E 1.84, V 1.1, Y 1.9, W 2.05, K 1.45, S 1.62, R 1.71
I36: F 1.5, L 1.49, A 1.11, D 0.894, N 0.613, K 0.876, P 0.142, Q 0.909, T 1.06, S 0.815, G 1.03, M 1.39, E 0.641, Y 1.02, H 0.809, V 2.01, W 1.32, R 0.952
L21: P 0.723, Q 1.84, I 1.47, S 1.24, T 1.04, M 2.35, G 1.27, D 1.04, E 1.28, A 1.84, N 1.24, K 1.66, Y 1.45, R 2.07, F 1.97, V 1.34, W 1.26, H 1.88
P27: Q 1.2, S 1.02, W 1.42, K 1.12, H 0.914, Y 1.22, L 1.15, N 1.22, T 1.16, D 1.35, E 1.37, A 1.13, R 0.846, G 1.21, F 1.41, V 1.2, C 2.1, I 1.27, M 1.18

Source: the MegaScale stability set (Tsuboyama et al. 2023)
